According to patent publication US20200347384:

Key:
[1] = target: T1, HIV-1 reverse transcriptase (HIV RT) (Human immunodeficiency virus) (UniProt P03366+P03366); assay: EMSA; details: TNA at all positions; ~500 pM after 1 h 37 C with snake venom phosphodiesterase (p160)
[2] = target: T1, HIV-1 reverse transcriptase (HIV RT) (Human immunodeficiency virus); assay: MST; details: TNA at all positions; triplicate

**Q.** With “AATAGTAAATTGATTTAAAAATTTCATAAATGCTACATAA [HIV-RT 3.17]” as the sequence, how does the Kd [1] read?
**A.** The Kd was 196 pM.

**Q.** And the Kd [2]?
**A.** The Kd was 380 pM.
